Source: patent publication US20220396813
Residue numbers refer to the chain shown, from its start.

Key:
Assay in all cases: cell_activity
Rec19 WP_058958135.1 = system: T1, Rec19 WP_058958135.1; settings: HEK293T inversion; background 0.0065
T1 sequence: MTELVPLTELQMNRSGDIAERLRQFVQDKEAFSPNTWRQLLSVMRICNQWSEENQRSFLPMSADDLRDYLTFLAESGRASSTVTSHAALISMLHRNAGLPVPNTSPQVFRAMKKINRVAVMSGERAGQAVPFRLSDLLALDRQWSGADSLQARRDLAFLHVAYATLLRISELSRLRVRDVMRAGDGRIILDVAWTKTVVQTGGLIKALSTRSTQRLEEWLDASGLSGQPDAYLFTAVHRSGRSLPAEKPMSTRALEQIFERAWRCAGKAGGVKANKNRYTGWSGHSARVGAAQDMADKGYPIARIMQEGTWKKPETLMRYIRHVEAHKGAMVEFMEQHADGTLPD

[1] = system: T2, Rec20 WP_090967054.1 (Pantoea sp. OV426); settings: HEK293T inversion; background 4.93
T2 sequence: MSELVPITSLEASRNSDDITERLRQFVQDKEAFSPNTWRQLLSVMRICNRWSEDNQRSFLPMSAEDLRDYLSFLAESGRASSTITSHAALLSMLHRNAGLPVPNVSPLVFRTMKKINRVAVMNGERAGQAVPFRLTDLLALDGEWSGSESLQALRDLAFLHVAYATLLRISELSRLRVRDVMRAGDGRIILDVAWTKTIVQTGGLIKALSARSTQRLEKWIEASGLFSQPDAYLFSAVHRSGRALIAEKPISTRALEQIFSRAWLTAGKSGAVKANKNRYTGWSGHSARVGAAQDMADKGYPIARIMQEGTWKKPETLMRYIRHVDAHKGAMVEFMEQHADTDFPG

Rec82 = settings: HEK293T inversion; background 5.03
Rec83 = settings: HEK293T inversion; background 5.425
Rec142 = biological target: T3, Rec142 (UniProt A0A0J6VB22); settings: HEK293T inversion; background 4.4
T3 sequence: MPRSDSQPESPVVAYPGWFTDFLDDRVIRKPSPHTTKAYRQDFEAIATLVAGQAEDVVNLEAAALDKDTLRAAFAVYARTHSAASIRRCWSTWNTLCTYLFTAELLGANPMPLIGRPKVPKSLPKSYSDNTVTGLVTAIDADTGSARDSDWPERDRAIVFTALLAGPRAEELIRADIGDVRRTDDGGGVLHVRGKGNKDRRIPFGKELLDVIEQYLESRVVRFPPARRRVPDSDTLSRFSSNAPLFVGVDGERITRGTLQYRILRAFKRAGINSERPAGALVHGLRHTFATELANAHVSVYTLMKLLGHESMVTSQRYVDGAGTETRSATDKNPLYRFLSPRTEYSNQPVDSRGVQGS

[2] = system: T4, Rec29 WP_089415106.1 (Pantoea agglomerans); settings: HEK293T inversion; background 1.305
T4 sequence: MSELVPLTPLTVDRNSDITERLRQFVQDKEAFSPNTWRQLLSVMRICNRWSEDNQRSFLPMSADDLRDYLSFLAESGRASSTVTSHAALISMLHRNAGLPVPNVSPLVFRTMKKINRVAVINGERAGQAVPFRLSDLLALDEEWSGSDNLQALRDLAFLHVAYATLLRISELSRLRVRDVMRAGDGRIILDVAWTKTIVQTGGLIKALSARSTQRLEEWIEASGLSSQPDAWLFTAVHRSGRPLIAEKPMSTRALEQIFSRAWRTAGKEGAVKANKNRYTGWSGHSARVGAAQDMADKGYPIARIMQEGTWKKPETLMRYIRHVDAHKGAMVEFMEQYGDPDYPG

[3] = system: T5, Rec30 WP_022624268.1 (Pantoea sp.); settings: HEK293T inversion; background 1.305
T5 sequence: T4 sequence with G98E, E142K

[4] = system: T6, Rec31 WP_046103089.1 (Pantoea anthophila); settings: HEK293T inversion; background 1.305
T6 sequence: T1 sequence with S135T, G341D, T342A

[5] = system: T7, Rec32 WP_069027120.1 (Pantoea agglomerans); settings: HEK293T inversion; background 6.6
T7 sequence: T4 sequence with R49C, E75Q, S135T, E142K, S145A, A210T, L225I, L244Q, A254S, G339S

[6] = system: T8, Rec33 WP_010671927.1 (Pantoea sp.); settings: HEK293T inversion; background 6.6
T8 sequence: T4 sequence with E142K

[7] = system: T9, Rec34 WP_109653747.1 (Pantoea agglomerans); settings: HEK293T inversion; background 6.6
T9 sequence: T4 sequence with S135T, E142K, S145A, A210T, L225I, A254S, G339S

[8] = system: T10, Rec35 WP_134161939.1 (Pantoea allii); settings: HEK293T inversion; background 6.6
T10 sequence: T4 sequence with L10Q, S135T, E142K, S145A, A210T, L225I, A231V, A254S, G339S

[9] = system: T11, Rec36 WP_111534863.1 (Pantoea sp.); settings: HEK293T inversion; background 6.6
T11 sequence: T4 sequence with G345D

[10] = system: T12, Rec37 WP_128085508.1 (Pantoea deleyi); settings: HEK293T inversion; background 6.6
T12 sequence: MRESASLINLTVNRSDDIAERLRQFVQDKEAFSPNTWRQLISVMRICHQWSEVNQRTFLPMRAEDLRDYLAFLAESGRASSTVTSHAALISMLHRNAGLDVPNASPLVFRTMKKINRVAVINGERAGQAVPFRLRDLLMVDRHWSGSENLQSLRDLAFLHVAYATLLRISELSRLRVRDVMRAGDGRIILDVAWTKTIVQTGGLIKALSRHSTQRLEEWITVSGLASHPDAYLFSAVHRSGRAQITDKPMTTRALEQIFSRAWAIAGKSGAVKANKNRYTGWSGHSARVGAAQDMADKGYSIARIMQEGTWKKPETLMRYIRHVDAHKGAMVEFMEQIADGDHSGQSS

[11] = system: T13, Rec38 WP_115764642.1 (Pantoea agglomerans); settings: HEK293T inversion; background 6.6
T13 sequence: T4 sequence with T11M, S135T, E142K, S145A, D148E, A152S, A210T, L225I, A254S, G339S

[12] = system: T14, Rec39 WP_111138305.1 (Pantoea sp. ARC607); settings: HEK293T inversion; background 6.6
T14 sequence: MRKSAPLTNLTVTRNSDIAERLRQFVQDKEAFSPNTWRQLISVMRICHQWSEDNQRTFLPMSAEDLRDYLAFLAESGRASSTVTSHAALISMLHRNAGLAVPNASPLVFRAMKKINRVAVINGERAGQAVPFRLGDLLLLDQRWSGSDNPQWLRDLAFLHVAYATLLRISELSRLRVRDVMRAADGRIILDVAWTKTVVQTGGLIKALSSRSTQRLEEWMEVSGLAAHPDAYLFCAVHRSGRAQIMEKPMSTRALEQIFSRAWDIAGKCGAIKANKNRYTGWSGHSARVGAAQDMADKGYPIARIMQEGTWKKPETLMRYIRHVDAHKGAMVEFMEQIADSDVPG

[13] = system: T15, Rec15 XP_012333305.1 (Plasmodium fragile); settings: HEK293T inversion; background 2.178
T15 sequence: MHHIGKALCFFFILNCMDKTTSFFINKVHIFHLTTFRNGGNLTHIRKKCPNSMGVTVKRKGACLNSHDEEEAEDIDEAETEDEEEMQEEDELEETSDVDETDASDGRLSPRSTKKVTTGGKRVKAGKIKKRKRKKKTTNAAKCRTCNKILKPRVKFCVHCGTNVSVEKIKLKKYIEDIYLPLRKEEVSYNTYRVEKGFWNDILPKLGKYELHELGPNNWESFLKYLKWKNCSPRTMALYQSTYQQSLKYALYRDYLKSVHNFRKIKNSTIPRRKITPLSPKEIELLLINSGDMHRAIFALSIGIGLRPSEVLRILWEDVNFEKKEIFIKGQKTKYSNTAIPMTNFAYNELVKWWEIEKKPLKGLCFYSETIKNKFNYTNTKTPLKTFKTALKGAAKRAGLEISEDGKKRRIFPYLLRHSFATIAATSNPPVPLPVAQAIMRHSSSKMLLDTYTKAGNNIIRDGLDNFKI

Sequence: TGACTTCGTATANNNNNNNNTATACGAAGCCA (double strand) [Rec19-20 natural site]
- activity (Rec19 WP_058958135.1): 63.6 % GFP+
- activity [1]: 70.7 % GFP+

Sequence: TGTGACTCCAGANNNNNNNNNTCTGGAGTCATA (double strand) [Rec82-83 natural site]
- activity (Rec82): 59 % GFP+
- activity (Rec83): 65.2 % GFP+

Sequence: CCGTCATGGATANNNNNNNNTATCCATGAAGC (double strand) [Rec142 natural site]
- activity (Rec142): 20.2 % GFP+

Sequence: ATGACTTCGTATANNNNNNNNTATACGAAGTCAT (double strand) [Rec29 natural site]
- activity [2]: 36.9 % GFP+

Sequence: TGACTTCGTATANNNNNNNNTATACGAAGTCA (double strand) [Rec30-39 natural site]
- activity [3]: 32.1 % GFP+
- activity [4]: 21.3 % GFP+
- activity [5]: 60 % GFP+
- activity [6]: 51 % GFP+
- activity [7]: 50.6 % GFP+
- activity [8]: 52 % GFP+
- activity [9]: 44.2 % GFP+
- activity [10]: 40 % GFP+
- activity [11]: 44.5 % GFP+
- activity [12]: 42 % GFP+

Sequence: TGCATATACATANNNNNNNNTATATATATGTA (double strand) [Rec15 natural site]
- activity [13]: 5.91 % GFP+
